The target of data set [1] is T1, SmPNP2 (purine nucleoside phosphorylase isoform 2) (Schistosoma mansoni, UniProt A0A0U3AGT1).
T1 construct: ORF of 287 amino acids, 6His-SUMO tag cleaved
T1 sequence (A0A0U3AGT1 1-287): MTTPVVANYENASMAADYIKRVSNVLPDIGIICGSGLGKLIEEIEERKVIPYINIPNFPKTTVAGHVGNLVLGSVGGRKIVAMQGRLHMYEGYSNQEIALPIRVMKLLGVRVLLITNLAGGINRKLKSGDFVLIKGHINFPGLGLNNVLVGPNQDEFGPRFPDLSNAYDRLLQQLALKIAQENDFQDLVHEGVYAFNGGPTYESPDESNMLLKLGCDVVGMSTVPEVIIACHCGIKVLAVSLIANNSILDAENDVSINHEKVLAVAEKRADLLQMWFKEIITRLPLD
In words: crystal structure at […] Å, ternary complex with cytosine. The class given is binding.

For data set [2], the target named is T1, SmPNP2 (purine nucleoside phosphorylase isoform 2). In words: crystal structure at […] Å (soaking). The class given is binding.
Data set [3] shares this target. Kind of data set: ITC; crystal structure at […] Å. The class given is binding. Background: Isothermal titration calorimetry measures the heat released or taken up as one component is titrated into another.
Substrate in data set [4]: OC[C@H]1O[C@@H](n2cnc3c(O)ncnc32)[C@H](O)[C@@H]1O
In words: xanthine oxidase-coupled phosphorolysis kinetics (KM). The class given is biochemical, Schistosoma mansoni. Particulars: phosphate (co-substrate).

Substrate in data set [5]: Nc1ncnc2c1ncn2[C@@H]1O[C@H](CO)[C@@H](O)[C@H]1O
The data set is described as above. The class given is biochemical, Schistosoma mansoni. To be noted: phosphate (co-substrate).

Substrate in the data set “purified protein”: Nc1ccn([C@@H]2O[C@H](CO)[C@@H](O)[C@H]2O)c(=O)n1
In words: purified protein. Particulars: active site; direct H-bonds of base with Met221 and Glu203, ribose O5 with His259 and Tyr202.

`O=P(O)(O)O[C@H]1O[C@H](CO)[C@@H](O)[C@H]1O` [R1P, ribose-1-phosphate]: the “crystal structure at 1.42 Å, ternary complex with cytosine” value in data set [1] is “As expected the R1P binds in SmPNP2 in a similar way to that observed for SmPNP1–R1P complex”.
Turning to `Nc1ncnc2c1ccn2[C@@H]1O[C@H](CO)[C@@H](O)[C@H]1O` [tubercidin], in data set [2], the “crystal structure at 1.95 Å (soaking)” value is “three complexes were obtained: SmPNP2–tubercidin (7-deaza-adenosine), SmPNP2–hypoxanthine and SmPNP2–adenine”.
What is called Kd is the constant that tells how readily two partners part at equilibrium. With `Nc1cc[nH]c(=O)n1` [CYT, cytosine], the Kd in data set [3] was found to be 27 µM. In other words, the double-digit micromolar range.

B1: SmPNP2 (purine nucleoside phosphorylase isoform 2) (Schistosoma mansoni) (protein)
chain: T1 sequence (A0A0U3AGT1 1-287)
notes: ORF of 287 amino acids, 6His-SUMO tag cleaved
A word on the Km: it is the substrate concentration at which the rate is half of its maximum. Broadly, the Vmax is the top rate of the reaction or transport when substrate is in excess. As usually defined, the kcat is the maximal rate divided by the concentration of active sites. What is called kcat/Km is the turnover number divided by the Michaelis constant. Consider B1, for which, in data set [4], the Km turned out to be 136.4 µM, the Vmax was 360 µM/min, the kcat was 7 ± 0.2 s⁻¹ and the kcat/Km amounted to 50600 ± 2900 M⁻¹ s⁻¹. Also, in data set [5], the Km is 22.3 µM, the maximum rate (Vmax) is 60 µM/min, the catalytic constant (kcat) is 1.02 ± 0.02 s⁻¹ and the kcat/Km was determined as 46000 ± 5200 M⁻¹ s⁻¹. Also, in “purified protein”, the Michaelis constant (Km) came to 76.3 µM, the maximal velocity (Vmax) came to 60 µM/min, the kcat stood at 2 s⁻¹ and the kcat/Km came to 26200 M⁻¹ s⁻¹.

Source of the values: article PMC6128611, “The molecular structure of Schistosoma mansoni PNP isoform 2 provides insights into the nucleoside selectivity of PNPs” (PLoS ONE, 2018).
